Like-named read-outs stand apart in the source and are kept apart here.
B1: 2-1G11 (antibody, V domains shown)
VH: EVQLVESRGGVVQPGRSLRLSCAASGFTFSSYGMHWVRQAPGKGLEWVAVISYDGSNKYYADSVKGRFTISRDNSKNTLYLQMNSLRAEDAAVYYCARDRVDILTGYSIYGMDVWGQGTTVTVSS
VL: EIVMTQSPATLSLSPGERATLSCRASQSVSSYLAWYQQKPGQAPRLLIYDASKRATGIPARFSGSGSGTDFTLTISSLEPEDFAVYYCQQRSNWPLTFGGGTKVEIK
B2: h97A3C2H4-9 (antibody, V domains shown)
VH: EVQLVESGGGLVQPGGSLRLSCAASGFTFSTYTMSWVRQAPGKRLEWVAYISYGGGSTSYPDTVKGRFTISRDNAKNSLYLQMNSLRAEDTAVYYCTRHVTVVENSMDYWGQGTTVTVSS
VL: DILLTQSPDFQSVTPKEKVTITCRASQSIGTSIHWYQQKTDQSPKLLIKYVSESFSGTPSRFSGSGSGTDFTLTINSLEAEDAATYYCQQTHSWPWTFGGGTKVEIK
notes: Humanized antibody; VH3-7/JH6 CDR-grafted with A93T, G44R; also called humanized BLyS antibody h97A3C2H4 variant 9 (VH.1b / Vk.1d)
B3: c35E6F7C3 (antibody, V domains shown)
VH: EVQLQQSGAELVKPGASVKLSCTAAGFNIQDTYIHWVKQRPEQGLEWIGRIDPANANTVYDPKFQGKATITADTSSNTAYLQVSSLTSEDTAVYYCASPVITAGFAYWGQGTLVTVSA
VL: QIVLTQSPAIMSASPGEKVTMTCGASSSVNYVHWYQQKSGTSPKRWIYDTSKLASGVPARFSGSGSGTSYSLTISSMEAEDAATYYCQQWTRSPLTFGAGTKVELK
B4: h8E7D9C7F5-1 (antibody, V domains shown)
VH: EVQLVQSGAEVKKPGASVKVSCKASGYTFTSYGISWVRQAPGQGLEWMGEIYPRSGNTYYNEKFKGRVTMTTDTSTSTAYMELRSLRSDDTAVYYCARSGPITTLVATDYGMDYWGQGTTVTVSS
VL: DIVMTQSPDSLAVSLGERATINCRASKSVSTSSYSYMHWYQQKPGQPPKLLIKFASNLESGVPDRFSGSGSGTDFTLTISSLQAEDVAVYYCQHSREFPYTFGGGTKVEIK
notes: Humanized antibody; also called humanized BLyS antibody h8E7D9C7F5 variant 1 (VH.1 / Vk.1)

Key:
[1] = molecular target: T1, extracellular domain of human BLyS protein (hBLyS-ECD), His-tagged, Ala134-Leu285 (human, UniProt Q9Y275 134-285); experiment: cell-based or functional assay
biotinylated hBLyS-ECD [2] = molecular target: T2, biotinylated hBLyS-ECD (human, UniProt Q9Y275 134-285, biotinylated with Biotin-X-X-NHS (molar ratio 7:1); sites not stated); experiment: ELISA on captured biotinylated hBLyS-ECD; antibody 0 nM (background)
T2 construct: also called biotinylated immunogen; biotinylated hBLvS-ECD

biotinylated hBLyS-ECD [3] = molecular target: T2, biotinylated hBLyS-ECD; experiment: BAFF R-coated ELISA, biotinylated hBLyS-ECD bound in presence of antibody 0.16 nM
biotinylated hBLyS-ECD [4] = molecular target: T2, biotinylated hBLyS-ECD; experiment: BAFF R-coated ELISA, biotinylated hBLyS-ECD bound in presence of antibody 4 nM
biotinylated hBLyS-ECD [5] = molecular target: T2, biotinylated hBLyS-ECD; experiment: ELISA on captured biotinylated hBLyS-ECD; antibody 0.534 nM
biotinylated hBLyS-ECD [6] = molecular target: T2, biotinylated hBLyS-ECD; experiment: BAFF R-coated ELISA, biotinylated hBLyS-ECD bound in presence of antibody 20 nM
biotinylated hBLyS-ECD [7] = molecular target: T2, biotinylated hBLyS-ECD; experiment: ELISA on captured biotinylated hBLyS-ECD; antibody 13.3 nM
biotinylated hBLyS-ECD [8] = molecular target: T2, biotinylated hBLyS-ECD; experiment: BAFF R-coated ELISA, biotinylated hBLyS-ECD bound in presence of antibody 0.8 nM
biotinylated hBLyS-ECD [9] = molecular target: T2, biotinylated hBLyS-ECD; experiment: ELISA on captured biotinylated hBLyS-ECD; antibody 0.0213 nM
biotinylated hBLyS-ECD [10] = molecular target: T2, biotinylated hBLyS-ECD; experiment: ELISA on captured biotinylated hBLyS-ECD; antibody 0.00427 nM
biotinylated hBLyS-ECD [11] = molecular target: T2, biotinylated hBLyS-ECD; experiment: ELISA on captured biotinylated hBLyS-ECD; antibody 66.7 nM
biotinylated hBLyS-ECD [12] = molecular target: T2, biotinylated hBLyS-ECD; experiment: BAFF R-coated ELISA, biotinylated hBLyS-ECD bound in presence of antibody 100 nM
[13] = molecular target: T1, extracellular domain of human BLyS …; experiment: SPR (Biacore), antibody captured by anti-human Fc, hBLyS-ECD as analyte
Method: Affinity constants were determined using a Biacore X100 instrument (purchased from GE Healthcare). Detailed operations and methods referred to the instrument manuals and detailed methods provided by manufacturers, specifically: determining affinity constant using a CM5 chip (Sensor Chip CM5, purchased from GE Healthcare). […] Then 1 M ethanolamine was injected in chip to block the remaining activation sites. After the antibody to be tested (i.e., the human BLyS antibody prepared by Embodiment 2) was captured by chip, 7 different gradient of immunogen dilutions (i.e., hBLyS-ECD) prepared by Embodiment 1 were injected and the binding and dissociation of antigen with antibody was detected by a Biacore instrument. The dissociation constant and binding constant were then fitted by Biacore X100 Evaluation Software 2.0, while the affinity constant was the ratio of dissociation constant to binding constant.
The binding and dissociation between antibody and antigen was detected by Biacore.

biotinylated hBLyS-ECD [14] = molecular target: T2, biotinylated hBLyS-ECD; experiment: ELISA on captured biotinylated hBLyS-ECD; antibody 0.107 nM
biotinylated hBLyS-ECD [15] = molecular target: T2, biotinylated hBLyS-ECD; experiment: BAFF R-coated ELISA, biotinylated hBLyS-ECD bound in presence of antibody 0.032 nM
biotinylated hBLyS-ECD [16] = molecular target: T2, biotinylated hBLyS-ECD; experiment: ELISA on captured biotinylated hBLyS-ECD; antibody 2.67 nM
biotinylated hBLyS-ECD [17] = molecular target: T2, biotinylated hBLyS-ECD; experiment: BAFF R-coated ELISA, biotinylated hBLyS-ECD bound in presence of antibody 0 nM
biotinylated hBLyS-ECD [18] = molecular target: T2, biotinylated hBLyS-ECD; experiment: BAFF R-coated ELISA, biotinylated hBLyS-ECD bound in presence of antibody 0.0064 nM
[19] = molecular target: T1, extracellular domain of human BLyS …; experiment: SPR (Biacore), antibody captured by anti-human Fc, hBLyS-ECD as analyte; remark: listed apart in the source

Row | Proportion of B lymphocytes in splenocytes (%), in vivo in mice [1] [%] | OD450 nm (biotinylated hBLyS-ECD [2]) [OD450 nm] | OD450 nm (biotinylated hBLyS-ECD [3]) [OD450 nm] | OD450 nm (biotinylated hBLyS-ECD [4]) [OD450 nm] | OD450 nm (biotinylated hBLyS-ECD [5]) [OD450 nm] | OD450 nm (biotinylated hBLyS-ECD [6]) [OD450 nm] | OD450 nm (biotinylated hBLyS-ECD [7]) [OD450 nm] | OD450 nm (biotinylated hBLyS-ECD [8]) [OD450 nm] | OD450 nm (biotinylated hBLyS-ECD [9]) [OD450 nm] | OD450 nm (biotinylated hBLyS-ECD [10]) [OD450 nm] | OD450 nm (biotinylated hBLyS-ECD [11]) [OD450 nm] | OD450 nm (biotinylated hBLyS-ECD [12]) [OD450 nm] | Kd [13] [nM] | koff [13] [s⁻¹] | kon [13] [M⁻¹ s⁻¹] | OD450 nm (biotinylated hBLyS-ECD [14]) [OD450 nm] | OD450 nm (biotinylated hBLyS-ECD [15]) [OD450 nm] | OD450 nm (biotinylated hBLyS-ECD [16]) [OD450 nm] | OD450 nm (biotinylated hBLyS-ECD [17]) [OD450 nm] | OD450 nm (biotinylated hBLyS-ECD [18]) [OD450 nm] | other results | Binder
1 | 25.6 | – | – | – | – | – | – | – | – | – | – | – | – | – | – | – | – | – | – | – | – | B1
2 | – | 0.198 | 1.81 | 1.13 | 1.88 | 0.748 | 2.27 | 1.56 | 0.372 | 0.179 | 2.37 | 0.506 | 1.88 | 0.000216 | 115000 | 1.02 | 1.98 | 2.24 | 1.94 | 1.96 | – | B2
3 | 30.5 | – | – | – | – | – | – | – | – | – | – | – | – | – | – | – | – | – | – | – | Kd [19]: 1.45 nM; koff [19]: 0.000277 s⁻¹; kon [19]: 190000 M⁻¹ s⁻¹ | B3
4 | – | 0.129 | 1.78 | 1.11 | 1.88 | 0.721 | 2.2 | 1.54 | 0.499 | 0.195 | 2.3 | 0.45 | 4.33 | 0.000942 | 218000 | 1.35 | 1.87 | 2.18 | 2.05 | 1.98 | – | B4

Reference: patent US20210347873A1 (SHANGHAI PHARMAEXPLORER, published 2021)
